Paper PMC5059767 (2016)

Target: His-PKAC (human wild-type PKAC) (human, UniProt P17612 1-351)
Assay: ITC

Binder: EPTLPREFTRRGRRGAVSVDSLAEL [36i peptide (25 aa ARHGAP36 pseudosubstrate motif)]
- Kd: 860 nM
